Assays:
[1] = molecular target: SARS-CoV-2 spike (RBD)-Fc (SARS-CoV-2) (UniProt P0DTC2); assay: ELISA; BPS Bioscience #79936 kit: plate coated with spike (RBD)-Fc, serial concentrations of test compound (200-12.5) added, kit completed as in its manual, luminescence
ACE2-His (human) = ACE2-His (human) (UniProt Q9BYF1); assay: ELISA; BPS Bioscience #79936 kit: ACE2-His held on a 96-well nickel-coated plate, test compound (25-200 µg/mL) incubated 60 min at room temperature, then spike (RBD)-Fc added for 60 min, anti-mouse Fc-HRP, chemiluminescence
ACE2-His (human), sequence (Q9BYF1 18-805): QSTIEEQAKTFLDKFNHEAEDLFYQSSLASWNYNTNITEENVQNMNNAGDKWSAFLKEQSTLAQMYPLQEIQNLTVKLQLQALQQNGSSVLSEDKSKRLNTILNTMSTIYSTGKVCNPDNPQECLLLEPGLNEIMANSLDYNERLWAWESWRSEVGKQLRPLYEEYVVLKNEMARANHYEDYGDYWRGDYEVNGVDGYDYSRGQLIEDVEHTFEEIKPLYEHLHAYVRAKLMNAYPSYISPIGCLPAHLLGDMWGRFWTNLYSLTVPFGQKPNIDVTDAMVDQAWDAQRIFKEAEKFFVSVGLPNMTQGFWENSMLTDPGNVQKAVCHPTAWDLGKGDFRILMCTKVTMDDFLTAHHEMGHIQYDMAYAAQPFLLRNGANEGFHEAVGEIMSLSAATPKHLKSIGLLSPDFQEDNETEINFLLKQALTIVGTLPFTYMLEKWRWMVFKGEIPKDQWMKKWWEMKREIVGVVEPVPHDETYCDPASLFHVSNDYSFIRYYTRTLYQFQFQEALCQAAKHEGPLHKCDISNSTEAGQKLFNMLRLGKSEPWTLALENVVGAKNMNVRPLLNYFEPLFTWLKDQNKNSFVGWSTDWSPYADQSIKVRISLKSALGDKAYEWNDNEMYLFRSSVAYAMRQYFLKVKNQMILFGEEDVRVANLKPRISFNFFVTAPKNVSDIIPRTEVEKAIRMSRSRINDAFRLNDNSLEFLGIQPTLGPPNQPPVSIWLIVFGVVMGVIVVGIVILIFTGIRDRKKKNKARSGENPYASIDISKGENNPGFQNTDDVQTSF

bovine lactoferrin (natural protein) was tested, and the maximum percent inhibition (RBD neutralization) [1] was 94%.
With “bovine lactoferrin (natural protein; other documents disagree on this pair)” the maximum percent inhibition of ACE2/spike at 200 mg concentration (ACE2-His (human)) was 33%.

From PMC10518009
